Values of other authors, collected in PMC5427221.

Target: C3b C3b (Homo sapiens) (UniProt P01024)
UniProt P01024, sequence (P01024 566-670): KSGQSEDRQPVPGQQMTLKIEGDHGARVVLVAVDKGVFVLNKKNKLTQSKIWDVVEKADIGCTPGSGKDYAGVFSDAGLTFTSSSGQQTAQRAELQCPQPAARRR

Kd: 10 µM
Substance: Factor H FH[1-4] (from UniProt P08603)
